According to the Human Domainome abundance scans (Beltran et al. 2025):
± gives the uncertainty stated by the source.

B1: Chromodomain-helicase-DNA-binding protein 5, residues 411 to 463; numbered along this chain, Q8TDI0 (parent)
chain: EEDDHMEFCRVCKDGGELLCCDACPSSYHLHCLNPPLPEIPNGEWLCPRCTCP

Variants of: B1
Test: abundance fitness (aPCA) (normalised: wild type 0, dead -1); higher = more abundant; growth selection in yeast, the domain comes from the species named
Conditions: Homo sapiens

| Variant | abundance fitness |
| --- | --- |
| M6D | -0.228 ± 0.095 |
| M6H | -0.279 ± 0.19 |
| M6E | -0.14 ± 0.088 |
| M6P | -0.03 ± 0.09 |
| M6W | -0.174 ± 0.076 |
| M6I | 0.012 ± 0.13 |
| M6Y | -0.401 ± 0.099 |
| M6R | -0.045 ± 0.056 |
| M6K | 0.172 ± 0.08 |
| M6N | 0.135 ± 0.094 |
| M6F | 0.084 ± 0.092 |
| M6V | -0.077 ± 0.071 |
| M6S | -0.233 ± 0.081 |
| M6L | -0.121 ± 0.061 |
| M6A | 0.059 ± 0.074 |
| M6T | 0.136 ± 0.096 |
| F8E | -0.135 ± 0.083 |
| F8M | -0.131 ± 0.075 |
| F8Q | -0.17 ± 0.051 |
| F8A | -0.017 ± 0.066 |
| F8I | -0.347 ± 0.12 |
| F8Y | 0.033 ± 0.088 |
| F8P | -0.261 ± 0.081 |
| F8N | 0.024 ± 0.11 |

| Variant | abundance fitness |
| --- | --- |
| F8K | -0.409 ± 0.12 |
| F8W | -0.346 ± 0.083 |
| F8V | -0.152 ± 0.076 |
| F8T | 0.023 ± 0.077 |
| F8R | -0.051 ± 0.045 |
| F8G | 0.033 ± 0.044 |
| F8H | -0.163 ± 0.1 |
| F8L | 0.015 ± 0.065 |
| F8C | -0.242 ± 0.097 |
| F8S | -0.099 ± 0.073 |
| F8D | -0.138 ± 0.077 |
| D4E | -0.131 ± 0.043 |
| D4R | 0.048 ± 0.041 |
| D4H | 0.17 ± 0.044 |
| D4Y | 0.252 ± 0.077 |
| D4P | 0.024 ± 0.041 |
| D4S | -0.081 ± 0.041 |
| D4G | -0.425 ± 0.045 |
| D4T | 0.216 ± 0.043 |
| D4F | 0.263 ± 0.047 |
| D4A | -0.186 ± 0.041 |
| D4L | 0.11 ± 0.042 |
| D4I | 0.184 ± 0.063 |
| D4K | 0.184 ± 0.047 |

| Variant | abundance fitness |
| --- | --- |
| D4N | 0.288 ± 0.043 |
| D4C | 0.203 ± 0.066 |
| D4W | 0.005 ± 0.047 |
| D4V | -0.14 ± 0.042 |
| D4M | 0.156 ± 0.043 |
| E7C | 0.095 ± 0.13 |
| E7R | -0.027 ± 0.074 |
| E7Y | -0.527 ± 0.17 |
| E7M | -0.378 ± 0.11 |
| E7P | -0.368 ± 0.07 |
| E7F | -0.224 ± 0.17 |
| E7Q | -0.332 ± 0.12 |
| E7I | -0.123 ± 0.074 |
| E7L | -0.131 ± 0.065 |
| E7S | -0.215 ± 0.084 |
| E7D | 0.031 ± 0.085 |
| E7N | -0.07 ± 0.12 |
| E7H | -0.278 ± 0.11 |
| E7K | -0.316 ± 0.094 |
| E7V | 0.063 ± 0.064 |
| E7A | -0.031 ± 0.083 |
| E7G | -0.079 ± 0.052 |
| E7W | -0.247 ± 0.067 |
| C20H | -0.065 ± 0.094 |

| Variant | abundance fitness |
| --- | --- |
| C20I | 0.073 ± 0.06 |
| C20G | 0.116 ± 0.052 |
| C20F | -0.05 ± 0.08 |
| C20T | 0.123 ± 0.073 |
| C20Y | 0.125 ± 0.092 |
| C20P | 0.146 ± 0.073 |
| C20D | 0.217 ± 0.08 |
| C20W | -0.029 ± 0.069 |
| C20E | -0.049 ± 0.079 |
| C20M | -0.017 ± 0.081 |
| C20L | 0.006 ± 0.047 |
| C20S | -0.008 ± 0.055 |
| C20Q | 0.031 ± 0.047 |
| C20A | 0.071 ± 0.066 |
| C20K | 0.01 ± 0.083 |
| C20V | 0.007 ± 0.052 |
| G16N | -0.369 ± 0.4 |
| G16I | -0.145 ± 0.32 |
| G16C | -0.183 ± 0.21 |
| G16M | -0.301 ± 0.13 |
| G16E | 0.411 ± 0.12 |
| G16P | -0.832 ± 0.15 |
| G16L | -0.28 ± 0.078 |
| G16D | -0.003 ± 0.14 |

| Variant | abundance fitness |
| --- | --- |
| G16K | -0.482 ± 0.16 |
| G16A | -0.629 ± 0.17 |
| G16R | -0.518 ± 0.14 |
| G16S | -0.023 ± 0.11 |
| G16V | -0.36 ± 0.063 |
| L19C | -0.317 ± 0.089 |
| L19S | -0.537 ± 0.15 |
| L19F | 0.001 ± 0.058 |
| L19G | -0.571 ± 0.059 |
| L19T | -0.169 ± 0.11 |
| L19W | -0.288 ± 0.089 |
| L19P | -1.22 ± 0.38 |
| L19Q | -0.155 ± 0.12 |
| L19I | 0.26 ± 0.098 |
| L19E | -0.346 ± 0.12 |
| L19V | -0.031 ± 0.077 |
| L19K | -0.361 ± 0.14 |
| L19Y | 0.099 ± 0.14 |
| L19R | -0.078 ± 0.06 |
| L18A | -0.769 ± 0.15 |
| L18S | -0.754 ± 0.13 |
| L18G | -0.655 ± 0.13 |
| L18I | 0.035 ± 0.14 |
| L18R | -0.084 ± 0.062 |

| Variant | abundance fitness |
| --- | --- |
| L18E | -0.812 ± 0.25 |
| L18T | -0.076 ± 0.099 |
| L18M | -0.019 ± 0.1 |
| L18Q | -0.415 ± 0.15 |
| L18D | -0.972 ± 0.32 |
| L18F | -0.969 ± 0.24 |
| L18N | -0.932 ± 0.49 |
| L18C | -0.288 ± 0.14 |
| L18W | -0.972 ± 0.17 |
| L18V | 0.065 ± 0.082 |
| L18P | -0.91 ± 0.29 |
| C9K | -0.438 ± 0.074 |
| C9V | -1.09 ± 0.069 |
| C9T | -0.56 ± 0.074 |
| C9D | -0.595 ± 0.1 |
| C9L | -0.861 ± 0.078 |
| C9Y | -0.977 ± 0.068 |
| C9R | -0.629 ± 0.062 |
| C9H | -1.5 ± 0.4 |
| C9Q | -0.771 ± 0.087 |
| C9S | -0.807 ± 0.072 |
| C9P | -0.94 ± 0.13 |
| C9F | -0.715 ± 0.18 |
| C9N | -0.735 ± 0.13 |

| Variant | abundance fitness |
| --- | --- |
| C9I | -1.05 ± 0.25 |
| C9G | -0.687 ± 0.068 |
| R10F | 0.178 ± 0.12 |
| R10V | -0.25 ± 0.065 |
| R10P | -0.413 ± 0.088 |
| R10T | 0.012 ± 0.086 |
| R10G | -0.035 ± 0.053 |
| R10D | -0.119 ± 0.053 |
| R10A | -0.219 ± 0.075 |
| R10H | -0.028 ± 0.12 |
| R10I | -0.089 ± 0.086 |
| R10Q | -0.106 ± 0.11 |
| R10W | -0.212 ± 0.086 |
| R10S | -0.089 ± 0.055 |
| R10L | -0.06 ± 0.056 |
| R10C | -0.296 ± 0.087 |
| R10Y | 0.037 ± 0.061 |
| R10N | 0.026 ± 0.11 |
| R10K | -0.218 ± 0.12 |
| D22C | -0.046 ± 0.08 |
| D22A | 0.05 ± 0.045 |
| D22E | 0.061 ± 0.077 |
| D22F | -0.139 ± 0.066 |
